Measurements taken from US20060002925A1 (ZymoGenetics, published 2006).

What was measured:
human ZcytoR14 = molecular target: T1, human ZcytoR14 (human, UniProt Q8NAC3 21-791); test: cell-based or functional assay
T1 sequence: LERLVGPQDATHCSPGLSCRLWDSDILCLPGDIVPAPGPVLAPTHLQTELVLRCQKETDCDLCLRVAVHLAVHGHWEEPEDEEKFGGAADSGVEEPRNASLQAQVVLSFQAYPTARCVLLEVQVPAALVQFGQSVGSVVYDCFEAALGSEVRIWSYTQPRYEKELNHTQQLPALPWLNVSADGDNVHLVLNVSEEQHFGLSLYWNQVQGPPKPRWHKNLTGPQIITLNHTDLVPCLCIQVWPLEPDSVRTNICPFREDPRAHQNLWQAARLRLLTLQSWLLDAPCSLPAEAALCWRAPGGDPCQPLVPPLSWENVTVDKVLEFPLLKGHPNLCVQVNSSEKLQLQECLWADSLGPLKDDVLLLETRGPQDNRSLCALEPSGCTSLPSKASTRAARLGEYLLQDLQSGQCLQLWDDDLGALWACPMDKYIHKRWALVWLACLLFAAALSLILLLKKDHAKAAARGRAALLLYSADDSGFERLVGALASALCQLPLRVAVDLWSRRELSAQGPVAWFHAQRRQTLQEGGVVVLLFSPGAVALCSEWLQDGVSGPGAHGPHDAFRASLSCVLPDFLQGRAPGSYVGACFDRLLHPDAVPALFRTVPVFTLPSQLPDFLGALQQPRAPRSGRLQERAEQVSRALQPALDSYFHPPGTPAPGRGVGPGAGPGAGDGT

human IL-17 receptor = molecular target: T2, human IL-17 receptor (human, UniProt Q96F46 33-320); test: cell-based or functional assay
T2 sequence: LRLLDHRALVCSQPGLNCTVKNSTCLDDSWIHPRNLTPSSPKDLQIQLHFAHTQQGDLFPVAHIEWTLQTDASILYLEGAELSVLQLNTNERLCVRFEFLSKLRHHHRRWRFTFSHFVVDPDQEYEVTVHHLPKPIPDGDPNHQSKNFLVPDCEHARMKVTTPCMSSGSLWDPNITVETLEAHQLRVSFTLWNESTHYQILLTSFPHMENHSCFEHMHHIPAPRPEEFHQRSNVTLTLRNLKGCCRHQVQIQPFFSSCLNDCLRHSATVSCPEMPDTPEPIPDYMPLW

- EC50 of ap1/nfkb luciferase activation in the hIL-17RCX1 recombinant line (human ZcytoR14): 0.61 ng/mL
- fold more potent EC50 in the recombinant line against the parental line (human ZcytoR14): 17 fold
- EC50 of ap1/nfkb luciferase activation in nih3t3/kz142.8/IL-17R cells (human IL-17 receptor): 12.4 ng/mL
B1: human IL-17F (ligand)
chain: RKIPKVGHTFFQKPESCPPVPGGSMKLDIGIINENQRVSMSRNIESRSTSPWNYTVTWDPNRYPSEVVQAQCRNLGCINAQGKEDISMNSVPIQQETLVVRRKHQGCSVSFQLEKVLVTVGCTCVTPVIHHVQ
modifications: biotinylated (Example 10) or 125I-radiolabeled by the iodobead method (Example 11) when used as tracer; unlabeled as cold competitor
